Molecular target: T1, PAR-2 (Homo sapiens, UniProt P55085)
T1 construct: expressed in transfected cells; host or cells: NCTC2544 cells
T1 sequence (P55085 26-397): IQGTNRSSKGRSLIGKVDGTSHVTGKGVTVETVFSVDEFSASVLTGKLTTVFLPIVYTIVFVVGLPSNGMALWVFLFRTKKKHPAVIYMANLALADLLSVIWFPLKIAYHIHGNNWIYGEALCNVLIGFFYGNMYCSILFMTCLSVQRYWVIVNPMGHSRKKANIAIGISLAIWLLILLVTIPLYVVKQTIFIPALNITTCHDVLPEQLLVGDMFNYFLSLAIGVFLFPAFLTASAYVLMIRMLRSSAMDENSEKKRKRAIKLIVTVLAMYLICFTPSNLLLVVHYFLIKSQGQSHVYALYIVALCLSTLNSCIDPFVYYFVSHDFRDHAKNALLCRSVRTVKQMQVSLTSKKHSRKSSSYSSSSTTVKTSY
Test: Assay of PAR-2 activation using inositol phosphates as an indicator in NCTC2544 cells with stably high expression of PAR-2
Format: cell-based
Conditions: subject substance added 15 min before stimulation
Description: The invention also provides a novel method for measuring PAR-2 activity. PAR-2 belongs to G-protein-coupled receptor (GPCR) family, and produces inositol phosphates as a second messenger upon activation of the receptor. Based on this mechanism, the effects of subject substances in activation of PAR-2 can be determined quantitatively by quantifying produced inositol phosphates in PAR2-expressing cells by an ion chromatography or the like.
NCTC2544 cells with stably high expression of PAR-2 were cultured in the serum-free medium containing […]/ml of [^3H]-myo-inositol for 18 hours. Lithium chloride (final […]) was added 30 min before the stimulation, and subsequently cells were stimulated with trypsin (1 to 30 nM) or the PAR-2 agonist peptide, SLIGKV (10 to 300 μM). After 45 min the lipid component was extracted with methanol and separated using an anion exchanging resin (AG1-X, formate form). Then the yield of inositol phosphates was determined in a scintillation counter. The subject substance was added 15 min before the stimulation.

SLIGKV-mediated activation of PAR-2 (inositol phosphate production) (stimulation with PAR-2 activating peptide SLIGKV): not affected
Trypsin-mediated activation of PAR-2 (inositol phosphate production) (stimulation with trypsin): inhibited
B1: trypsin inhibitor derived from soybeans: a trypsin inhibitor derived from soybeans, used as subject substance in the PAR-2 inositol phosphate assay (protein, UniProt P01070 25-205, looked up)
Trypsin inhibitor A: DFVLDNEGNPLENGGTYYILSDITAFGGIRAAPTGNERCPLTVVQSRNELDKGIGTIISSPYRIRFIAEGHPLSLKFDSFAVIMLCVGIPTEWSVVEDLPEGPAVKIGENKDAMDGWFRLERVSDDEFNNYKLVFCPQQAEDDKCGDIGISIDHDDGTRRLVVSKNKPLVVQFQKLDKESL
